Measured values published in publication PMC12268258.
Where two headings read alike, the source gives them in different places.

Tests used:
Experiment in all cases: BLI
HB125scFv-2 Y242H [1] = target: HB125scFv-2 Y242H
HB125scFv-2 D33H [2] = target: HB125scFv-2 D33H
HB125scFv-2 D33H/E56H [3] = target: HB125scFv-2 D33H/E56H
HB125scFv-2 N54H [4] = target: HB125scFv-2 N54H
HB125scFv-2 T32H [5] = target: HB125scFv-2 T32H
HB125scFv-2 E56H [6] = target: HB125scFv-2 E56H
HB125scFv-2 Y242H [7] = target: HB125scFv-2 Y242H; remark: listed apart in the source
HB125scFv-2 D33H [8] = target: HB125scFv-2 D33H; remark: listed apart in the source
HB125scFv-2 D33H/E56H [9] = target: HB125scFv-2 D33H/E56H; remark: listed apart in the source
HB125scFv-2 N54H [10] = target: HB125scFv-2 N54H; remark: listed apart in the source
HB125scFv-2 T32H [11] = target: HB125scFv-2 T32H; remark: listed apart in the source
HB125scFv-2 E56H [12] = target: HB125scFv-2 E56H; remark: listed apart in the source
HB125scFv-2 T32H [13] = target: HB125scFv-2 T32H; remark: listed apart in the source

- Kd (HB125scFv-2 Y242H [1]): 1480 nM
- koff (HB125scFv-2 Y242H [1]): 0.012 s⁻¹
- kon (HB125scFv-2 Y242H [1]): 8040 M⁻¹ s⁻¹
- Kd (HB125scFv-2 D33H [2]): 51.7 nM
- koff (HB125scFv-2 D33H [2]): 0.00154 s⁻¹
- kon (HB125scFv-2 D33H [2]): 27800 M⁻¹ s⁻¹
- Kd (HB125scFv-2 D33H/E56H [3]): 426 nM
- koff (HB125scFv-2 D33H/E56H [3]): 0.0073 s⁻¹
- kon (HB125scFv-2 D33H/E56H [3]): 19100 M⁻¹ s⁻¹
- Kd (HB125scFv-2 N54H [4]): 206 nM
- koff (HB125scFv-2 N54H [4]): 0.00286 s⁻¹
- kon (HB125scFv-2 N54H [4]): 15700 M⁻¹ s⁻¹
- Kd (HB125scFv-2 T32H [5]): 146 nM
- koff (HB125scFv-2 T32H [5]): 0.00351 s⁻¹
- kon (HB125scFv-2 T32H [5]): 42900 M⁻¹ s⁻¹
- percent change of wavelength shift, association 0.5 μM → 1 μM (HB125scFv-2 T32H [5]): 57%
- percent change of wavelength shift, association 1 μM → 0.5 μM (HB125scFv-2 T32H [5]): 23%
- percent change of wavelength shift, association 1 μM → 2 μM (HB125scFv-2 T32H [5]): 49%
- percent change of wavelength shift, association 2 μM → 1 μM (HB125scFv-2 T32H [5]): 21%
- percent change of wavelength shift, average association (HB125scFv-2 T32H [5]): 37%
- percent change of wavelength shift, average dissociation (HB125scFv-2 T32H [5]): -21%
- percent change of wavelength shift, dissociation 0.5 μM → 0 μM (first) (HB125scFv-2 T32H [5]): -22%
- percent change of wavelength shift, dissociation 0.5 μM → 0 μM (second) (HB125scFv-2 T32H [5]): -17%
- percent change of wavelength shift, dissociation 1 μM → 0 μM (first) (HB125scFv-2 T32H [5]): -23%
- percent change of wavelength shift, dissociation 1 μM → 0 μM (second) (HB125scFv-2 T32H [5]): -22%
- percent change of wavelength shift, dissociation 2 μM → 0 μM (HB125scFv-2 T32H [5]): -20%
- Kd (HB125scFv-2 E56H [6]): 548 nM
- koff (HB125scFv-2 E56H [6]): 0.00577 s⁻¹
- kon (HB125scFv-2 E56H [6]): 12700 M⁻¹ s⁻¹
- Kd (HB125scFv-2 Y242H [7]): 478 nM
- koff (HB125scFv-2 Y242H [7]): 0.00854 s⁻¹
- kon (HB125scFv-2 Y242H [7]): 18800 M⁻¹ s⁻¹
- Kd (HB125scFv-2 D33H [8]): 36 nM
- koff (HB125scFv-2 D33H [8]): 0.00176 s⁻¹
- kon (HB125scFv-2 D33H [8]): 60500 M⁻¹ s⁻¹
- Kd (HB125scFv-2 D33H/E56H [9]): 250 nM
- koff (HB125scFv-2 D33H/E56H [9]): 0.00557 s⁻¹
- kon (HB125scFv-2 D33H/E56H [9]): 23700 M⁻¹ s⁻¹
- Kd (HB125scFv-2 N54H [10]): 165 nM
- koff (HB125scFv-2 N54H [10]): 0.00341 s⁻¹
- kon (HB125scFv-2 N54H [10]): 26000 M⁻¹ s⁻¹
- Kd (HB125scFv-2 T32H [11]): 17.4 nM
- koff (HB125scFv-2 T32H [11]): 0.00166 s⁻¹
- kon (HB125scFv-2 T32H [11]): 89700 M⁻¹ s⁻¹
- Kd (HB125scFv-2 E56H [12]): 160 nM
- koff (HB125scFv-2 E56H [12]): 0.0058 s⁻¹
- kon (HB125scFv-2 E56H [12]): 43400 M⁻¹ s⁻¹
- percent change of wavelength shift, association 0.5 μM → 1 μM (HB125scFv-2 T32H [13]): 31%
- percent change of wavelength shift, association 1 μM → 0.5 μM (HB125scFv-2 T32H [13]): 15%
- percent change of wavelength shift, association 1 μM → 2 μM (HB125scFv-2 T32H [13]): 39%
- percent change of wavelength shift, association 2 μM → 1 μM (HB125scFv-2 T32H [13]): 20%
- percent change of wavelength shift, average association (HB125scFv-2 T32H [13]): 26%
- percent change of wavelength shift, average dissociation (HB125scFv-2 T32H [13]): -17%
- percent change of wavelength shift, dissociation 0.5 μM → 0 μM (first) (HB125scFv-2 T32H [13]): -18%
- percent change of wavelength shift, dissociation 0.5 μM → 0 μM (second) (HB125scFv-2 T32H [13]): -11%
- percent change of wavelength shift, dissociation 1 μM → 0 μM (first) (HB125scFv-2 T32H [13]): -15%
- percent change of wavelength shift, dissociation 1 μM → 0 μM (second) (HB125scFv-2 T32H [13]): -18%
- percent change of wavelength shift, dissociation 2 μM → 0 μM (HB125scFv-2 T32H [13]): -21%
Substance: human insulin (from UniProt P01308 90-110; P01308 25-54) (natural protein)
